Where two headings read alike, the source gives them in different places.
Key:
[1] = target: T1, human PD-L1, full length, expressed on cells (human, UniProt Q9NZQ7 19-290); assay: FACS competition with biotin-CD80/Fc on HEK293/PD-L1 cells
T1 construct: also called HEK293/PD-L1 cells; HEK293/OS8/PD-L1 cells

[2] = target: T1, human PD-L1, full length, expressed on …; assay: FACS on HEK293/PD-L1 cells
Description: (§1) Briefly, 50-200 nanograms of PD-L1/His were diluted in 50 microliters of PBS and coated in each well of 96-well ELISA plates (JinCanHua, Shenzhen, China). After blocking with 3% bovine serum albumin in TBST (20 mM Tris, 150 mM NaCl, 0.05% Tween20, pH7.5) and incubating with culture supernatants of hybridoma clones, the HRP-conjugated horse anti-mouse IgG antibody (Cat. No. 7076S, Cell Signaling Technology) and tetramethylbenzidine (TMB) (Cat. No. PA107-01, TianGen, Beijing, China) were used to detect binding signals by a plate reader (PHREAstar, BMG Labtech, Germany) as light absorbance at 450 nm. The ELISA-positive clones were further verified by fluorescence-activated cell sorting (FACS). PD-L1 expression cells, HEK293/PD-L1 (10⁵ cells/well), were incubated with supernatants from hybridoma clones in V-bottom 96-well plates (Cat. No. 3897, Corning). The cell surface bound PD-L1 antibodies were detected with Dylight 649-conjugated goat anti-mouse IgG antibody (Cat. No. 405312, Biolegend, San Diego, Calif., USA) and cell fluorescence was monitored in a Guava EasyCyte 8HT flow cytometer (Millipore, USA).
(§2) The binding activities of the purified monoclonal antibodies were evaluated in ELISA and FACS assays as described in previous sections. The dose-dependent binding curves in ELISA and FACS were used to compare mAb potency.

[3] = target: T1, human PD-L1, full length, expressed on …; assay: FACS competition with biotin-PD-1/Fc on HEK293/PD-L1 cells
From the text: Using this method, we evaluated functional strength of anti-PD-L1 mAbs.

[4] = target: T1, human PD-L1, full length, expressed on …; assay: cell-based or functional assay
[5] = target: T1, human PD-L1, full length, expressed on …; assay: cell-based or functional assay; remark: listed apart in the source
human PD-L1-ECD/His [6] = target: T2, human PD-L1-ECD/His (human, UniProt Q9NZQ7 19-238); assay: ELISA on coated PD-L1/His
T2 construct: Expressed in 293-F cells; also called PD-L1/His; human PD-L1/His
Description: as §1, §2

[7] = target: T1, human PD-L1, full length, expressed on …; assay: FACS competition with biotin-CD80/Fc on HEK293/PD-L1 cells; remark: listed apart in the source
human PD-L1-ECD/His [8] = target: T2, human PD-L1-ECD/His; assay: SPR (BIAcore T-200), human PD-L1/His on CM5 chip, Fab injected
Description: (§3) For affinity determinations of anti-PD-L1 Fabs, SPR assays were performed using BIAcore™ T-200 (GE Life Sciences). Briefly, human PD-L1/His was coupled to an activated CM5 biosensor chip (Cat. No. BR100530, GE Life Sciences) to achieve approximately 100-200 response units (RU), followed by blocking un-reacted groups with 1M ethanolamine. A serial dilutions of 0.12 nM to 90 nM Fab samples were injected, mixed into the SPR running buffer (10 mM HEPES, 150 mM NaCl, 0.05% Tween20, pH7.4) at 30 μL/minute, and binding responses on human PD-L1/His were calculated by substracting of RU from a blank flow-cell. Association rates (kₒₙ) and dissociation rates (koff) were calculated using the one-to-one Langmuir binding model (BIA Evaluation Software, GE Life Sciences). The equilibrium dissociation constant (Kd) was calculated as the ratio koff/kₒₙ.
For affinity determinations of anti-PD-L1 Fabs, SPR assays were conducted using BIAcore™ T-200 instrument (GE Life Sciences, Shanghai, China) as described earlier. Association rates (kₒₙ) and dissociation rates (koff) were calculated using the one-to-one Langmuir binding model (BIA Evaluation Software, GE Life Sciences). The equilibrium dissociation constant (Kd) was calculated as the ratio koff/kₒₙ.

[9] = target: T1, human PD-L1, full length, expressed on …; assay: FACS competition with biotin-PD-1/Fc on HEK293/PD-L1 cells; remark: listed apart in the source
[10] = target: T1, human PD-L1, full length, expressed on …; assay: cell-based or functional assay; remark: listed apart in the source
[11] = target: T1, human PD-L1, full length, expressed on …; assay: FACS competition with biotin-CD80/Fc on HEK293/PD-L1 cells; remark: listed apart in the source
[12] = target: T1, human PD-L1, full length, expressed on …; assay: cell-based or functional assay; remark: listed apart in the source
human PD-L1-ECD/His [13] = target: T2, human PD-L1-ECD/His; assay: SPR (BIAcore T-200), human PD-L1/His on CM5 chip, Fab injected; remark: listed apart in the source
Description: as §3

T1 sequence (Q9NZQ7 19-290 limits assumed): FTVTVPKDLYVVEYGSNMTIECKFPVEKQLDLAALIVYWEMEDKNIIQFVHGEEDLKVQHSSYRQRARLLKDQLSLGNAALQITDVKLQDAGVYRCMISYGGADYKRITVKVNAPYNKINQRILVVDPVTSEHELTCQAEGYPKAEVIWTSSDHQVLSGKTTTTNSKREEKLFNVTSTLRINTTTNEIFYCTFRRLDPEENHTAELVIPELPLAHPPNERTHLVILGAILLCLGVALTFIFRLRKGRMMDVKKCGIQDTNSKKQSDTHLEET
T2 sequence (Q9NZQ7 19-238): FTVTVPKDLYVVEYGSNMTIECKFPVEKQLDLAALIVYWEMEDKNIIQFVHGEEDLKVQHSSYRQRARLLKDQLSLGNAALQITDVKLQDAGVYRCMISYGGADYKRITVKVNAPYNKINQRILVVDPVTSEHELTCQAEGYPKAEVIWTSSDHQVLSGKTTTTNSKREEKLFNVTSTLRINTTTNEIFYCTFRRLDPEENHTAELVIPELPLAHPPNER

| Binder | IC50 [3] | IC50 [7] | Max inhibition [7] | Kd (human PD-L1-ECD/His [8]) | koff (human PD-L1-ECD/His [8]) | kon (human PD-L1-ECD/His [8]) | IC50 [9] | Max inhibition [9] | IL-2 release in HuT78/P3Z: IC50 [10] | IL-2 release in HuT78/P3Z: Max inhibition [10] | IL-2 release in HuT78/PD-1: EC50 [10] | IL-2 release in HuT78/PD-1: Top line [10] | also measured |
| --- | --- | --- | --- | --- | --- | --- | --- | --- | --- | --- | --- | --- | --- |
| hu333-3C2 Fab (Fab, V domains shown, Human Fab format; constant parts not restated) VH: EVQLVESGGGLVQPGGSLRLSCAVSGFSLTSYGVHWVRQAPGKGLEWVAVIWAGGSTNYADSVKGRFTISKDNSKNTVYLQMNSLRAEDTAVYYCAKPYGNSAMDYWGQGTLVTVSS VL: DIQMTQSPSSLSASVGDRVTITCKASQDVGIVVAWYQQKPGKAPKLLIYWASIRHTGVPSRFSGSGSGTEFTLTISSLQPDDFATYYCQQYSNYPLYTFGQGTKVEIK | – | 0.073 µg/mL | 99% | 8.09 pM | 1.15e-05 s⁻¹ | 1.42e+06 M⁻¹ s⁻¹ | 0.065 µg/mL | 100% | 0.013 µg/mL | 100% | 0.046 µg/mL | 3120 pg/mL | – |
| hu333-3H2 Fab (Fab, V domains shown, Human Fab format; constant parts not restated) VH: EVQLVESGGGLVQPGGSLRLSCAVSGFSLTSYGVHWVRQAPGKGLEWVAVIWAGGSTNYADSVKGRFTISKDTSKNTVYLQMNSLRAEDTAVYYCAKPYGNSAMDYWGQGTLVTVSS VL: DIQMTQSPSSLSASVGDRVTITCKASQDVGIVVAWYQQKPGKAPKLLIYWASIRHTGVPSRFSGSGSGTEFTLTISSLQPDDFATYYCQQYSNYPLYTFGQGTKVEIK | – | 0.064 µg/mL | 99% | 34.9 pM | 4.61e-05 s⁻¹ | 1.32e+06 M⁻¹ s⁻¹ | 0.071 µg/mL | 100% | 0.014 µg/mL | 100% | 0.057 µg/mL | 3020 pg/mL | – |

More lines, main results first:

| IC50 [3] | IC50 [7] | Max inhibition [7] | Kd (human PD-L1-ECD/His [8]) | koff (human PD-L1-ECD/His [8]) | kon (human PD-L1-ECD/His [8]) | IC50 [9] | Max inhibition [9] | IL-2 release in HuT78/P3Z: IC50 [10] | IL-2 release in HuT78/P3Z: Max inhibition [10] | IL-2 release in HuT78/PD-1: EC50 [10] | IL-2 release in HuT78/PD-1: Top line [10] | Binder | also measured |
| --- | --- | --- | --- | --- | --- | --- | --- | --- | --- | --- | --- | --- | --- |
| 0.463 µg/mL | – | – | – | – | – | – | – | – | – | – | – | Murine mAb333 (antibody, V domains shown, Murine hybridoma mAb; also called mu333; Mu333) VH: QVQLKESGPGLVAPSQSLSITCTVSGFSLTSYGVHWVRQPPGKGLEWLGVIWAGGSTNYNSALMSRLSISKDNSKSQVVLKMNSLQTDDTAMYYCAKPYGNSAMDYWGQGTSVTVSS VL: DILMTQSHKFMSTSVGDTVSITCKASQDVGIVVAWYQQKPGQSPKLLIYWASIRHTGVPDRFTGSGSGTDFTLTISNVQSEDLADYFCQQYSNYPLYTFGGGTKLEIK | IC50 [1]: 0.052 µg/mL; EC50 [2]: 0.099 µg/mL; IL-2 release in HuT78/PD-1 cells co-cultured with HEK293/OS8/PD-L1 cells: EC50 [4]: 0.092 µg/mL; Inhibition of IL-2 secretion in HuT78/P3Z cells co-cultured with HEK293/PD-L1 cells: IC50 [5]: 0.021 µg/mL; EC50 (human PD-L1-ECD/His [6]): 0.036 µg/mL |
| 0.062 µg/mL | – | – | – | – | – | – | – | – | – | – | – | hu333-2B Fab (Fab, V domains shown, Human Fab format, His-tagged; constant parts not restated (as for hu333-1A)) VH: EVQLVESGGGLVQPGGSLRLSCAVSGFSLTSYGVHWVRQAPGKGLEWVAVIWAGGSTNYVDSVKGRFTISKDNAKNSVYLQMNSLRAEDTAVYYCAKPYGNSAMDYWGQGTLVTVSS VL: DIQMTQSPSTLSASVGDRVTITCKASQDVGIVVAWYQQKPGKAPKLLIYWASIRHTGVPSRFSGSGSGTEFTLTISSLQPDDFATYYCQQYSNYPLYTFGQGTKLEIK | IC50 [11]: 0.055 µg/mL; IL-2 release in HuT78/P3Z: IC50 [12]: 0.011 µg/mL; IL-2 release in HuT78/PD-1: EC50 [12]: 0.054 µg/mL; Kd (human PD-L1-ECD/His [13]): 1.54 pM; koff (human PD-L1-ECD/His [13]): 2.09e-06 s⁻¹; kon (human PD-L1-ECD/His [13]): 1.36e+06 M⁻¹ s⁻¹ |

From patent US20180215825A1 (BEIGENE, published 2018)
